Data from patent US12065505B2, “Antibodies and antigen binding peptides for factor XIa inhibitors and uses thereof” (Bristol-Myers Squibb Company, priority 2021, dated 2024).
Positions count from the first letter of the chain named.

B1: 26D5-75768-348-A10-mAb: human IgG1f/kappa mAb; VH SEQ ID NO: 56, VL SEQ ID NO: 89 (antibody, V domains shown)
VH: EVQLVESGGGLIQPGGSLRLSCAASGFTVSSNAVSIVRQAPGKGLEWVAYIYPGGRTYYADSVKGRFTISRDNSKNTLYLQMNSLRAEDTAVYYCTIGGFGGGDYWGQGTLVTVSS
VL: DIQMTQSPSSVSASVGDRVTITCRASQGISSNNQWYQQKPGKAPKLLIYYASSLQSGVPSRFSGSGSGTDFTLTISSLQPEDFATYYCQQGNEFPLTFGGGTKVEIK
B2: 26D5-75214-343-F06-mAb: human IgG1f/kappa mAb; VH SEQ ID NO: 53, VL SEQ ID NO: 85 (antibody, V domains shown)
VH: B1 VH with V34M, I36W, A49S, Y50F, T96A, I97R, G98A, G103P
VL: B1 VL with N33L, Q34A, Y50A, G91A
B3: 26D5-75202-343-A09-mAb: human IgG1f/kappa mAb; VH SEQ ID NO: 54, VL SEQ ID NO: 86 (antibody, V domains shown)
VH: B1 VH with V34M, I36W, A49S, T96A, I97R, G98A
VL: B1 VL with S30Y, N33L, Q34A, Y50A, G91A
B4: 26D5-75229-343-A10-mAb: human IgG1f/kappa mAb; VH SEQ ID NO: 52, VL SEQ ID NO: 84 (antibody, V domains shown)
VH: B1 VH with V34M, I36W, A49S, T96A, I97R, G98A, G103P
VL: B1 VL with N33L, Q34A, Y50A, G91A, E93Q
B5: 26D5-75203-343-B09-mAb: human IgG1f/kappa mAb; VH SEQ ID NO: 54, VL SEQ ID NO: 87 (antibody, V domains shown)
VH: B1 VH with V34M, I36W, A49S, T96A, I97R, G98A
VL: B1 VL with N33L, Q34A, Y50A, S53T, G91A
B6: P1-074468-1: first round optimization progeny Fab; VH SEQ ID NO: 62, VL SEQ ID NO: 88 (antibody, V domains shown)
VH: B1 VH with T28Q, V34M, I36W, A49S, Y50F, T96A, I97R
VL: B1 VL with N33L, Q34A, Y50A, G91A, E93S
B7: P1-073708-1: 26D5 parent Fab (Fab 26D5-GV-Q); VH SEQ ID NO: 82, VL SEQ ID NO: 99 (antibody, V domains shown)
VH: B1 VH with A33Y, V34M, I36W, A49S, Y50F, P53S, T96A, I97R
VL: B1 VL with N32W, N33L, Q34A, Y50A, G91A, E93S

Test: SPR (Biacore) Protein A mAb capture, Compound A injected
Settings: 37° C., binding to Compound A, apparent affinity, for rank ordering only, read-out: KD
Protocol: The binding of hybridoma expressed 26D5 parent mAb (VH SEQ ID NO: 83 and VL SEQ ID NO: 98 in IgG1 f format)(P1-072224) and affinity matured mAbs to Compound A was examined by SPR (Biacore™) using a protein A capture method. The running buffer was 1×PBS (phosphate buffered saline, pH 7.4) with 0.05% Tween 20 and 2% DMSO. Binding experiments were carried out at 37° C. Protein A was coated on a CM5 S-series sensor chip (Cytiva, Cat. No. 29149603) at high density (2000+ RUs of protein A). The immobilization of protein A was carried out using the standard amine coupling immobilization procedure recommended by the manufacturer. The affinity matured antibody was then captured at a concentration of 2 ug/mL on the protein A surface at a flow rate of 3 uL/min for 2 minutes. Compound A was then injected over the captured antibody at concentrations spanning 100-3 nM (100, 50, 25, 12.5, 6.25, 3.125 nM) (FIG. 10) and for screening concentrations spanning 100-3 nM (100, 33, 11 nM) for 2 minutes at a flow rate of 100 uL/min and allowed to dissociate for at least 450 seconds. The chip surface was regenerated after each cycle with a 40 second pulse of 10 mM Glycine, pH 1.5. Background binding to the protein A surface alone was used to subtract non-specific binding. All experiments were run on a Biacore T200 surface plasmon resonance instrument using Biacore T200 Control software v. 2. Data analysis was performed using Biacore T200 evaluation software v 3.1. Apparent affinities were determined for rank ordering only since dissociation rates were too slow to be measured by Biacore. The names of the mAbs in Table 10 refer to mAbs having the H and L chain sequences of the corresponding Fabs in Table 3 in an IgG1f format.

Row | Kd [nM] | Molecule
1 | < 0.1 | B1
2 | < 0.05 | B2
3 | < 0.09 | B3
4 | < 0.07 | B4
5 | < 0.05 | B5

Same assay, conditions: 37° C., binding to Compound A, apparent, for rank ordering only

Row | Kd [s⁻¹] | Molecule | Ka [M⁻¹ s⁻¹]
6 | <0.00041 | B1 | 3.8e+06
7 | <5e-05 | B2 | 1.2e+06
8 | <5e-05 | B3 | 590000
9 | <5e-05 | B4 | 770000
10 | <5e-05 | B5 | 1.2e+06

Test: Competitive TR-FRET assay modified for mAbs and Fabs (T0, T24, T48)
Assay type: binding
Settings: 37° C.; 24 hr; read-out: T24 hr IC50
Protocol: A competitive TR-FRET (time-resolved fluorescence resonance energy transfer) assay was developed to rank-order the dissociation of α-Compound A mAbs from Compound A as equilibrium is reached at 37° C. The assay buffer was HBS-N (10 mM HEPES, 150 mM NaCl, pH 7.4; GE Healthcare), 0.1% (w/v) BSA (bovine serum albumin; Sigma), 2% DMSO (dimethyl sulfoxide; Sigma). All reagents were prepared in assay buffer and dispensed in equal volumes into white 384 microplates with final volume of 20 μl per well at the following final concentrations: 4 nM COMPOUND 5, the biotinylated analog of COMPOUND 2, a 100 0.1 nM 7-pt titration of human α-Compound A antibodies, 0.1 nM europium-labeled α-mouse IgG (LANCE Eu-W1024; PerkinElmer), 5 nM streptavidin-D2 (Cisbio), and 4 nM mAb 26D5 VH_A10G_Y33A_S53P_M89V_G95A; VK_W32N_H38Q (P1-075621, the second-round optimization parent 26D5-295-B08 formatted with mouse IgG Fc). COMPOUND 5 and α-Compound A antibody titrations were added first to the microplate, and were subjected to an initial incubation at 37° C., 1000 rpm, for one hour to facilitate antibody binding to the compound. After the initial incubation period, the europium α-mouse IgG, streptavidin-D2, and 26D5-mouse IgG (P1-075621) were added sequentially, then the plate was returned to 37° C., 1000 rpm incubation. Microplates were read using a Perkin Elmer EnVision plate reader, and the measured FRET signal was defined as [665 nm]/[620 nm]*10,000. Microplates were read at 30 minutes (T0) and after 24 hour (T24) intervals. For each antibody titration, the FRET signal was converted to % Inhibition relative to wells without α-Compound A antibody: (100 ((FRET at [antibody concentration]/FRET at 0 nM)*100). The % inhibition antibody titrations were plotted using TIBCO Spotfire (v.7), and the IC50 was determined using a 4-parameter model curve fit. The IC50s at each timepoint were reported, as well as the IC50 curve shift relative to T0. An IC50 curve shift indicated α-Compound A antibody dissociation from the biotinylated compound as the assay reached equilibrium, which subsequently allowed 26D5-mouse IgG1 (P1-075621) competitor to bind and generate the FRET signal detected in the assay.
The competitive TR-FRET assay defined above was also modified to assess optimized 26D5 antibody progeny that were reformatted as Fabs. The α-Compound A antibody and Fab titration series were extended to 250 0.244 nM (11-pt titration), and replicates of each concentration were collected in quadruplicate. The assay incubation was extended to include an additional 48 hr timepoint to ensure equilibrium was reached, and T48 hr IC50 and IC50 shifts were reported. The % inhibition titrations were plotted in Graphpad Prism (v.8) and fit to a 4-parameter model. All other experimental setup conditions were otherwise identical to the antibody TF-FRET assay.
Competitive FRET data collected for affinity-optimized α-Compound A 26D5 progeny comparing human antibodies and Fabs are shown in FIG. 14 and Table 13. Each panel represents a single α-Compound A sequence, with antibody (mAb, solid lines, circles) and Fab (dotted lines, triangles) formats overlaid. […] The names of the mAbs/Fabs in Table 13 refer to the corresponding sequences in Tables 1-3. All mAbs listed in Table 13 were in a human IgG1f/LC kappa format.

Row | IC50 [nM] | Molecule
11 | 2.2 | B1
12 | 2.5 | B2
13 | 2.5 | B3
14 | > 38.2 | B6
15 | > 28.2 | B7
16 | 2.4 | B4
17 | 3 | B5

Same assay, conditions: 37° C.; 48 hr; read-out: T48 hr IC50

Row | IC50 [nM] | Molecule
18 | 2.3 | B1
19 | 2.7 | B2
20 | 2.9 | B3
21 | > 43.1 | B6
22 | > 28.8 | B7
23 | 2.5 | B4
24 | 3.1 | B5

Same assay, conditions: 37° C.; IC50 shift at 24 hr relative to T0

Row | Molecule | T24 hr IC50 shift [nM]
25 | B1 | 1.0
26 | B2 | 1.3
27 | B3 | 1.1
28 | B6 | >36.0
29 | B7 | >25.7
30 | B4 | 1.1
31 | B5 | 0.4

Same assay, conditions: 37° C.; IC50 shift at 48 hr relative to T0

Row | Molecule | T48 hr IC50 shift [nM]
32 | B1 | 1.1
33 | B2 | 1.4
34 | B3 | 1.5
35 | B7 | >26.2
36 | B4 | 1.1
37 | B5 | 0.5

Same assay, conditions: 37° C.; read at 30 minutes (T0); competitor 26D5-mouse IgG (P1-075621); read-out: T0 IC50

Row | IC50 [nM] | Molecule
38 | 1.2 | B1
39 | 1.3 | B2
40 | 1.4 | B3
41 | 2.2 | B6
42 | 2.6 | B7
43 | 1.3 | B4
44 | 2.6 | B5
